Experimental data from patent publication CN108503708A (BEIJING WISDOMAB BIOTECHNOLOGY CO LTD; GENRIX SHANGHAI …, dated 2018).
Substitutions are numbered along the chain they refer to.

B1: H11E5+L25B8 (affinity-matured variant of hS2C3) (antibody, V domains shown)
VH: QVQLVQSGAEVKKPGASVKVSCKASGYTFTDYYMHWVRQAPGQRLEWMGWIYPSSGNTKYAQKFKDRVTMTRDTSTSTVYMELSSLRSEDTAVYYCARREEDYFDYWGQGTLVTVSS
VL: DIVMTQSPDSLAVSLGERATINCKSSQSLLYSSNKKNYLTWYQQKPGQPPKLLIYWASTRESGVPDRFSGSGSGTDFTLTISSLQAEDVAVYYCQQFYAYPISFGQGTKLEIK
notes: Humanized monoclonal antibody
B2: H10C7+L25B8 (affinity-matured variant of hS2C3) (antibody, V domains shown)
VH: B1 VH with S54G, K59R, A61S
VL: B1 VL
notes: Humanized monoclonal antibody
B3: hS2C3-IgG4 (humanized S2C3) (antibody, V domains shown)
VH: B1 VH with Y52N, K65Q
VL: B1 VL with S32P, Q96E, F97Y, I102L
B4: hS4D12-IgG4 (humanized S4D12) (antibody, V domains shown)
VH: QVQLVQSGAEVKKPGASVKVSCKASGYTFTNYWMHWVRQRPGQGLEWIGVIAPSDNYTNYNQKFQGRVTMTVDTSTSTVYMELSSLRSEDTAVYYCTKGGKYSMDYWGQGTTVTVSS
VL: DIVMTQTPLSLPVTPGEPASISCRSSQSIVHSNGNTYLEWYLQKPGQSPQLLIYKVSNRFSGVPDRFSGSGSGTDFTLKISRVEAEDVGVYYCFQGSHVPFTFGQGTKLEIK
B5: Hu5F9-G4 (humanized anti-CD47 monoclonal antibody) (antibody, human IgG4, V domains shown)
VH: QVQLVQSGAEVKKPGASVKVSCKASGYTFTNYNMHWVRQAPGQRLEWMGTIYPGNDDTSYNQKFKDRVTITADTSASTAYMELSSLRSEDTAVYYCARGGYRAMDYWGQGTLVTVSS
VL: B4 VL with T7S, H31Y, E39G, F101Y
notes: Prepared after US 9017675B2; labelled IgG4; also called Hu5F9-IgG4; hu5F9-IgG4
B6: S2H2-IgG4 (mouse-human chimeric antibody, human IgG4-kappa) (antibody, V domains shown)
VH: QVQLQQPGAEVVKPGASVKMSCKASGYTLSSYWMHWVKQRPGQGLEWIGTIDRSDSYISYNQKFKGKATLTVDTSSGTVYMQLNSLTSEDSAVYYCTRGGPYGSKMMDNWGQGTSVTVSS
VL: DIQMNQSPSSLSASLGDTITITCHASQNINVWLSWYQQKPGNIPKLLIYKASNLHTGVPSRFSGSGSGTGFTLTISSLQPEDIATYYCQQGQSYPLTFGTGTKLELKR
notes: also called 人-鼠嵌合单抗S2H2
B7: S2C3-IgG4 (mouse-human chimeric antibody, human IgG4-kappa) (antibody, V domains shown)
VH: QIQLQQSGPELVKPGASVKISCKASGYTFTDYYMHWVKQRPGQGLEWIGWINPSSGNTKYAQKFQDKATLTVATSSSTAYMQLSSLTSEDTAVYFCARREEDYFDYWGQGTLVTVSS
VL: DIVMSQSPSSLAVSVGEKVTMSCKSSQSLLYPSNKKNYLTWYQQKPGQSPKLLIYWASTRESGVPDRFTGSGSGTDFTLTISSVKAEDLAVYYCQEYYAYPLSFGAGTKLEIKR
notes: also called 人-鼠嵌合单抗S2C3
B8: S4D12 (mouse scFv clone displayed on phage) (scFv)
scFv: QVQLQQPGAELVKPGASVKMSCKASGYTFTNYWMHWVKQRPGQGLEWIGVIAPSDNYTNYNQKFQGKATLTVDTSSSTAYMQLSSLTSEDSAVYYCTKGGKYSMDYWGQGTSVTVSSGGGGSGGGGSGGGGSDVLMTQTPLSLPVSLGDQASISCRSSQSIVHSNGNTYLEWYLQKPGQSPKLLIYKVSNRFSGVPDRFSGSGSGTDFTLKISRVEAEDLGVYYCFQGSHVPFTFGSGTKLEIK
notes: also called 鼠单链抗体S4D12; 鼠单抗S4D12
B9: S2C3 (mouse scFv clone displayed on phage) (scFv)
scFv: QIQLQQSGPELVKPGASVKISCKASGYTFTDYYMHWVKQRPGQGLEWIGWINPSSGNTKYAQKFQDKATLTVATSSSTAYMQLSSLTSEDTAVYFCARREEDYFDYWGQGTLVTVSSGGGGSGGGGSGGGGSDIVMSQSPSSLAVSVGEKVTMSCKSSQSLLYPSNKKNYLTWYQQKPGQSPKLLIYWASTRESGVPDRFTGSGSGTDFTLTISSVKAEDLAVYYCQEYYAYPLSFGAGTKLEIK
notes: also called 鼠单链抗体S2C3; 鼠单抗S2C3
B10: S2H2 (mouse scFv clone displayed on phage) (scFv)
scFv: QVQLQQPGAEVVKPGASVKMSCKASGYTLSSYWMHWVKQRPGQGLEWIGTIDRSDSYISYNQKFKGKATLTVDTSSGTVYMQLNSLTSEDSAVYYCTRGGPYGSKMMDNWGQGTSVTVSSGGGGSGGGGSGGGGSDIQMNQSPSSLSASLGDTITITCHASQNINVWLSWYQQKPGNIPKLLIYKASNLHTGVPSRFSGSGSGTGFTLTISSLQPEDIATYYCQQGQSYPLTFGTGTKLELK
notes: also called 鼠单链抗体S2H2; 鼠单抗S2H2
B11: S4D12-IgG4 (mouse-human chimeric antibody, human IgG4-kappa) (antibody, V domains shown)
VH: QVQLQQPGAELVKPGASVKMSCKASGYTFTNYWMHWVKQRPGQGLEWIGVIAPSDNYTNYNQKFQGKATLTVDTSSSTAYMQLSSLTSEDSAVYYCTKGGKYSMDYWGQGTSVTVSS
VL: DVLMTQTPLSLPVSLGDQASISCRSSQSIVHSNGNTYLEWYLQKPGQSPKLLIYKVSNRFSGVPDRFSGSGSGTDFTLKISRVEAEDLGVYYCFQGSHVPFTFGSGTKLEIKR
notes: also called 人-鼠嵌合单抗S4D12

Target: T1, hCD47-mFc (human CD47 extracellular region D1 fused to mouse IgG2a Fc) (human (homo sapiens))
T1 construct: no linker is stated
Assay: competition ELISA by the method of Example 3 (hCD47-mFc coated, hCD172a-D1M1-His as competitor)

Binder | IC50 [nM]
B1 | < 5
B2 | < 5
B3 | < 5
B4 | < 5

Target: T2, huCD47-D1-his (recombinant human CD47 extracellular region D1 with C-terminal His tag) (human (homo sapiens), UniProt Q08722 19-141)
T2 construct: Expressed in HEK293 cells; analyte in the Biacore measurements and antigen of the phage panning; also called huCD47-his; hCD47; not shown: His tag added at the C-terminus
Assay: SPR BIAcore, by the method of Example 3 (antibody captured, huCD47-D1-his analyte)

Binder | Kd [nM] | koff [s⁻¹] | kon [M⁻¹ s⁻¹]
B1 | 0.807 | 0.00096 | 1.19e+06
B2 | 1.11 | 0.00115 | 1.03e+06
B3 | 9.55 | 0.0103 | 1.08e+06

Target: T1, hCD47-mFc (human CD47 extracellular …)
Assay: competition ELISA by the method of Example 3 (hCD47-mFc coated, hCD172a-D1M1-His as competitor)
Remark: another data set of the same source

Binder | IC50 [nM]
B3 | 3.36
B5 | 4.16
B4 | 2.68

Target: T2, huCD47-D1-his (recombinant human CD47 …)
Assay: SPR BIAcore, against hS2C3 as reference

Binder | fold improvement of affinity over hS2C3 [fold]
B1 | 10

Target: T1, hCD47-mFc (human CD47 extracellular …)
Assay: competition ELISA by the method of Example 3 (hCD47-mFc coated, hCD172a-D1M1-His as competitor)
Remark: another data set of the same source

Binder | IC50 [nM]
B1 | 4.13
B2 | 4.51
B3 | 4.13

Target: T1, hCD47-mFc (human CD47 extracellular …)
Assay: competition ELISA: hCD47-mFc coated, fixed hCD172a-D1M1-His as competitor, antibody titrated

Binder | IC50 [nM]
B6 | 2 to 5
B7 | 2 to 5

Target: T2, huCD47-D1-his (recombinant human CD47 …)
Assay: solid-phase phage panning on huCD47-D1-his, three rounds

Binder | binding result
B8 | binds
B9 | binds
B10 | binds

Target: T2, huCD47-D1-his (recombinant human CD47 …)
Assay: SPR BIAcore, by the method of Example 3 (antibody captured, huCD47-D1-his analyte)
Remark: another data set of the same source

Binder | Kd [nM] | koff [s⁻¹] | kon [M⁻¹ s⁻¹]
B3 | 10.1 | 0.011 | 1.09e+06
B7 | 18.5 | 0.0205 | 1.11e+06
B4 | 9.6 | 0.0118 | 1.22e+06
B11 | 8.56 | 0.011 | 1.28e+06

Target: T2, huCD47-D1-his (recombinant human CD47 …)
Assay: SPR Biacore X100, antibody captured via anti-human Fc on CM5, huCD47-D1-his as analyte, 25 C

Binder | Kd [nM] | koff [s⁻¹] | kon [M⁻¹ s⁻¹]
B6 | 9.71 | 0.00696 | 717000
B7 | 25.1 | 0.0222 | 886000
B11 | 10.1 | 0.0142 | 1.41e+06

Target: T1, hCD47-mFc (human CD47 extracellular …)
Assay: competition ELISA: hCD47-mFc coated, fixed hCD172a-D1M1-His as competitor, antibody titrated
Remark: another data set of the same source

Binder | IC50 [nM]
B6 | 2.08
B7 | 5.19
B5 | 9.61
B11 | 3.89
